Measurements taken from article PMC10528708.

Biological target: T1, CHF-1Flu (tomato aspermy virus)
T1 chain: RKRHKLNR
Assay: fluorescence polarization

B1: d(CTG)10 (structured_DNA)
DNA: CTGCTGCTGCTGCTGCTGCTGCTGCTGCTG
Question: Which Kd does the source give for B1 here?
Answer: Its Kd is 440 ± 79 nM.
